Measurements: patent EP0830146B1

Columns and labels:
[1] = biological target: human CD3 on Jurkat cells (human) (UniProt P07766); assay: competition with 125I-UCHT1 tracer on Jurkat cells; competitor at 1 nM
[2] = biological target: human CD3 on Jurkat cells (human) (UniProt P07766); assay: competition with 125I-UCHT1 tracer on Jurkat cells; competitor at 100 nM
[3] = biological target: human CD3 on Jurkat cells (human) (UniProt P07766); assay: cell-based or functional assay

% of 125I-UCHT1 bound [1] [%]	% of 125I-UCHT1 bound [2] [%]	Substance	difference in IC50 against UCHT1-CRM9, protein synthesis inhibition [3] [fold]	protein synthesis (% of controls), no serum, 1 x 10^-10 M on Jurkat cells (% of controls) [3]
80	0	UCHT1 (antibody)	–	–
–	–	sFv-DT390 (from UniProt P00588 1-390)	16	18
80	0	scUCHT1 (from UniProt P01871 106-453)	–	–
